# Source: publication PMC11929898 (Scientific Reports, 2025)
# Molecular target: SMC3 (mouse (endogenous in mouse ES cells), UniProt Q9CW03 1-1217)
# Assay: co-IP
# Sequence of SMC3 (Q9CW03 whole entry): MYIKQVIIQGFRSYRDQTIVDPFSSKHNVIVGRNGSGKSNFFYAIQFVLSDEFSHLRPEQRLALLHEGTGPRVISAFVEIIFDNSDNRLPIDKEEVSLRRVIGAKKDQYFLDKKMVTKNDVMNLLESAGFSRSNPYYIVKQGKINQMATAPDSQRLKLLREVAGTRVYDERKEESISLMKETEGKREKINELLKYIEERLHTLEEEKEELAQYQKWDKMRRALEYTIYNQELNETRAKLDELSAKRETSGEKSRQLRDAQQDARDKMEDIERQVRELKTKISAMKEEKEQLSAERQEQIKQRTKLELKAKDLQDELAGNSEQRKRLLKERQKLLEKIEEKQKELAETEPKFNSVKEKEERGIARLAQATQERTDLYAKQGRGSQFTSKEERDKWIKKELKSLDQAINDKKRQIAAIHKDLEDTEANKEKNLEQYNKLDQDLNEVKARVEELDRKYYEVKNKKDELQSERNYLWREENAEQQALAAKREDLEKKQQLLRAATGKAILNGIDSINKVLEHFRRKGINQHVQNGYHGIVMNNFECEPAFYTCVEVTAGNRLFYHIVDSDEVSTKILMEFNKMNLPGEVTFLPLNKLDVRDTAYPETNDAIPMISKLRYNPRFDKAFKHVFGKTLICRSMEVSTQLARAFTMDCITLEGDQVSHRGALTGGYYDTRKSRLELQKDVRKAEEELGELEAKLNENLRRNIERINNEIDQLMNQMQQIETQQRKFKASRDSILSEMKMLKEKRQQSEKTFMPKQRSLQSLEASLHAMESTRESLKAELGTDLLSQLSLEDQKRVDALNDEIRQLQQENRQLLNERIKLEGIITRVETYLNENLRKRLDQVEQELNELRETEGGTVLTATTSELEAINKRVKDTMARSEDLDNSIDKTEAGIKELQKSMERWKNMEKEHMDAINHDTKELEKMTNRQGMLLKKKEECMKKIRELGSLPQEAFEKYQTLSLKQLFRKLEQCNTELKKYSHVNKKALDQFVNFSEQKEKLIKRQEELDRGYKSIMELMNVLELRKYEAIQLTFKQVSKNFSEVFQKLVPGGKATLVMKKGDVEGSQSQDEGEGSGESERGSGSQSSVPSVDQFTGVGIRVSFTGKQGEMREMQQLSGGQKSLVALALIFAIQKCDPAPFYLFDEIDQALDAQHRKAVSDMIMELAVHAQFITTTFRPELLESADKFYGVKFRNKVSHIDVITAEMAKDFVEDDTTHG
binder,measurement,value
REC8 (natural protein) MFYYPNVLQRHTGCFATIWLAATRGSRLVKREYLNVNVVKTCEEILNYVLVRVQPPVAGLPRPRFSLYLSAQLQIGVIRVYFQQCQYLVEDIQHILEHLHRAQLRIRIDMEEADLPSLLLPNCLAMMETLEDAPEPFFGKMSVDPRLPSPFDIPQIRHLLEAATPEKTRKETLPEATPDPRKPDRTLATVQSPEVITLQEAEPIRMLQIEGEQDLPEISRGDLELLIAEKDDAILLEERQRGRLLRQRRASLPLDESREEPRALEGAGLVSALSPPAPAQVEGIQEALPGQVFPPEVQKMTGWEPGALLTEVTPPQELRLPAPPSTEKRLPSLQRPLPRRHRRRQLLFWDKETQISREKFEEQLQTGAHCWEYPVAQPPKRMLTSPAELFRTPTLSGWLPPELLGLWTHCAQVPQRMLRQRPQLETEETVEEERAADEEERRKTEALSEIEVLREAQEPSGPLMLSSELSLEAAEDEKSRTSLIPPEWWAWSEEGQPEPPALPMLPELPEVPMEMPPRPELSSEAVLRAVALKLQANKELDFSSLVPPLSPRKLASRVFYLLLVLSTQKILLVEQQKPYGPLLIRPGPKFP,fold change of co-IP with siRad21 against siCtrl,1.92 fold
